The data set deals with the molecule itself. The experiment in a line: SEC + native gel or EMSA.

The stoichiometry N is the number of molecules, sites or subunits per partner or assembly.

B1: Cu, Zn superoxide dismutase 1 (SOD1) H46Q-G108H, de-metallated (enzyme)
chain: not shown
Turning to B1, the “stoichiometry N” value was 3.

B2: Cu, Zn superoxide dismutase 1 (SOD1) F20L-H46Q, de-metallated (enzyme)
chain: not shown
As to B2, the “stoichiometry N” value stood at 3.

For the origin of these results see paper doi:10.1101/2021.08.17.456705 (bioRxiv, 2021).
